Results: publication PMC8679000, “Biochemical Characterizations of Human TMPK Mutations Identified in Patients with Severe Microcephaly: Single Amino Acid Substitutions Impair Dimerization and Abolish Their Catalytic Activity” (ACS Omega, 2021)

Target: the molecule itself
Assay: SEC; Superdex G200; 10 mM Tris/HCl pH 7.6, 100 mM NaCl, 5 mM MgCl2, 5 mM DTT; 200 ug protein injected, 0.4 mL/min; 0.4 mL fractions analysed by TMPK activity and Western blot; size markers BSA, ovalbumin, cytochrome C

B1: wild-type human deoxythymidylate kinase (TMPK) (enzyme, UniProt P23919 1-212, looked up)
chain: MAARRGALIVLEGVDRAGKSTQSRKLVEALCAAGHRAELLRFPERSTEIGKLLSSYLQKKSDVEDHSVHLLFSANRWEQVPLIKEKLSQGVTLVVDRYAFSGVAFTGAKENFSLDWCKQPDVGLPKPDLVLFLQLQLADAAKRGAFGHERYENGAFQERALRCFHQLMKDTTLNWKMVDASKSIEAVHEDIRVLSEDAIRTATEKPLGELWK
notes: The pET-14b vector with N-terminal 6xHis tag is stated for the mutants only; the WT was 'run in parallel'; also called WT TMPK; WT; not shown: His6 (inferred from the mutants' construct)
stoichiometry N: 2
